Measured values published in patent US20160024208A1 (Regeneron, published 2016).

T1: C-term Biotin Nav1.7 (3-1) peptide, human (human, not fully specified; C-terminal biotin attached via a G4S linker)
T1 construct: Synthetic peptide; also called Human Nav1.7 3-1 C-term biotin
T1 peptide: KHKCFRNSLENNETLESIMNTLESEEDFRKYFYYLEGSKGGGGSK

T2: N-Term Biotin-Nav1.7 (3-1) peptide, human (human, not fully specified; N-terminal biotin attached via a G4S linker)
T2 construct: ELISA peptide
T2 peptide: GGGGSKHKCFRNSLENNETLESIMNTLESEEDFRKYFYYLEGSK

T3: N-Term Biotin Nav1.7 (3-1) peptide, mulatta (mulatta (monkey), not fully specified; N-terminal biotin attached via a G4S linker)
T3 construct: Synthetic peptide; also called Mulatta Nav1.7 3-1 N-term biotin; monkey
T3 peptide: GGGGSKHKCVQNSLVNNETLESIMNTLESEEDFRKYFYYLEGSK

T4: Native Nav1.7 (3-1) peptide, rat (rat)
T4 construct: Synthetic peptide; also called Rat Nav1.7 3-1 native
T4 peptide: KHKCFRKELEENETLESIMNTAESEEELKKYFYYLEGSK

T5: N-Term Biotin Nav1.7 (3-1) peptide, mouse (mouse, not fully specified; N-terminal biotin attached via a G4S linker)
T5 construct: Synthetic peptide; also called Mouse Nav1.7 3-1 N-term biotin
T5 peptide: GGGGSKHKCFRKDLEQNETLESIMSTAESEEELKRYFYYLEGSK

T6: Native Nav1.7 (3-1) peptide, human (human)
T6 construct: Synthetic peptide (Celtek), unbiotinylated; also called Human Nav1.7 3-1 native; Nav1.7 3-1 native peptide
T6 peptide: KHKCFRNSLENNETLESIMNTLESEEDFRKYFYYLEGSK


Experiments:
[1] = target: T1, C-term Biotin Nav1.7 (3-1) peptide, …; experiment: SPR, captured biotin-peptide, antibody analyte
Description: (§1) The binding affinities of anti-Naᵥ 1.7 antibodies to Naᵥ 1.7 loop peptides were determined by Biacore. For monovalent kinetic experiments, antibodies were captured through the Fc region via a goat anti-Fc-coupled biosensor surface, and the peptides (as analyte) were injected over this captured antibody surface. For bivalent (avidity-driven) kinetic experiments, biotinylated peptides corresponding to the Naᵥ 1.7 3-1, 3-3, or paddle loop sequences were captured on a NeutrAvidin sensor surface, and anti-Naᵥ 1.7 antibodies (as analyte) were injected over this surface. Following the capture step, each analyte was individually injected at several concentrations over its respective capture surface, and changes in bound surface units (RU) were monitored. The dissociation rate is independent of the concentration of analyte used in the experiment, and the dissociation rate constant (kd) was determined from the change in antibody-bound analyte RU over time. The Biacore kinetic data were obtained using a double referencing procedure. The double referencing was conducted by first subtracting any interaction of the analyte over the reference surface (i.e., the anti-Fc coupled surface alone or the NeutrAvidin surface alone), thereby correcting for nonspecific binding to capture surface and for refractive index changes. Control buffer injections (no analyte) over the antibody- or peptide-captured surfaces were also performed to allow subtraction of RU signal changes resulting from the natural dissociation of captured binding partner from the sensor surface. The kinetic parameters were obtained by globally fitting the data for all concentrations tested for a given peptide or antibody to a 1:1 binding model using Biacore T100 Evaluation Software version 2.0.2. The KD was calculated as the dissociation rate constant divided by the association rate constant (KD=kd/kₐ). The dissociative half-life (t_{1/2}) was calculated from the dissociation rate constant (t_{1/2}=In2/kd).

[2] = target: T2, N-Term Biotin-Nav1.7 (3-1) peptide, …; experiment: ELISA on coated peptide, antibody 1 ug/ml, OD450 grade
Description: (§2) Anti-Naᵥ 1.7 antibodies were tested for their ability to bind to the Naᵥ 1.7 peptides. The various peptides were coated overnight onto 96-well Nunc Immunosorp plates at a concentration of 4 μg/mL in PBS, followed by blocking for 1 hour in a suitable blocking agent. For biotinylated peptides, avidin was first coated on Nunc Immunosorp plates at 2 μg/mL in PBS overnight, followed by blocking as described, and the plate was then coated with biotinylated peptides at a concentration of 0.4 μg/mL and incubated for 1 hour at room temperature. Purified anti-Naᵥ 1.7 antibodies were diluted to a final concentration of 0.1 μg/mL and 1.0 μg/mL and added to the wells of the coated microtiter plates followed by incubation for 1 hour at room temperature. Bound antibodies were detected with horseradish peroxidase (HRP) conjugated anti-mouse or anti-human IgG (Jackson Immuno Research Lab, West Grove, Pa.) depending on the antibody species and developed by colorimetric response using tetramethylbenzidine (TMB) substrate (BD Biosciences). Absorbance was read at OD₄₅₀ on a plate reader for 0.1 second.
(§3) Values in Table 11 represent absolute binding ranges (at OD450) to plate-coated peptides for antibodies added at 1 μg/ml as follows: OD450<0.2: −; 0.2<OD450<1: +; 1<OD450<2: ++; 2<OD450<4: +++; NT: Not Tested.

[3] = target: T3, N-Term Biotin Nav1.7 (3-1) peptide, …; experiment: as above
Description: as §2, §3

[4] = target: T4, Native Nav1.7 (3-1) peptide, rat; experiment: as above
Description: as §2, §3

[5] = target: T5, N-Term Biotin Nav1.7 (3-1) peptide, …; experiment: as above
Description: as §2, §3

[6] = target: T6, Native Nav1.7 (3-1) peptide, human; experiment: SPR, captured antibody, peptide analyte
Description: as §1

[7] = target: T3, N-Term Biotin Nav1.7 (3-1) peptide, …; experiment: SPR, captured antibody, peptide analyte
Description: as §1

[8] = target: T4, Native Nav1.7 (3-1) peptide, rat; experiment: SPR, captured antibody, peptide analyte
Description: as §1

[9] = target: T5, N-Term Biotin Nav1.7 (3-1) peptide, …; experiment: SPR, captured antibody, peptide analyte
Description: as §1

[10] = target: T7, full-length human Nav1.7 fused at its N-terminus to GFP, expressed in HEK293 cells (human, UniProt Q15858 1-1988); experiment: cell-based or functional assay
[11] = target: T7, full-length human Nav1.7 fused at its …; experiment: flow cytometry; % stained hNav1.7-GFP-HEK293 minus parental HEK293
Description: The binding of anti-Naᵥ 1.7 human antibodies to full-length Naᵥ 1.7 expressed in HEK293 cells was determined by flow cytometry (FACS). HEK293 cells were stably-transfected with full-length human Nav1.7 fused at its N-terminus to the green fluorescent protein (GFP) to generate cell line hNaᵥ 1.7-GFP-HEK293. Antibody binding to the transfected cells overexpressing Naᵥ 1.7 was compared to binding to the parental HEK293 cell line. To perform the binding experiments, adherent cells were collected using 1 mM EDTA in PBS, washed and re-suspended in cold PBS containing 5% FBS. For each binding experiment, the anti-Naᵥ 1.7 antibody (at concentrations ranging from 1 nM to 13 nM), was added to 250,000 cells in 500 μL of PBS with 5% FBS. After incubation for 20 minutes on ice, the secondary antibody, recognizing either human-Fc and conjugated to cyanine 5 (Cy5) or recognizing mouse-Fc and conjugated to allophyocyanin (APC), was then added to the cell mixture at a final secondary antibody concentration of 1.7 nM. After incubating for 20 minutes on ice, the cells were resuspended in PBS+5% FBS and then sorted and analyzed on a flow cytometer to determine relative binding by the candidate antibodies. For FACS analysis, gating was applied to examine only healthy live cells in the antibody binding experiments, and percentage stained was recorded. Staining of secondary antibodies alone to Naᵥ 1.7-GFP-HEK293 cells gave low background signals (1-2%). Specific binding was measured as the percent binding to Naᵥ 1.7-GFP-HEK293 cells minus percent binding to parental HEK293 cells.

| Kd [1] [nM] | t1/2 [1] [min] | OD450 [2] [od] | OD450 [3] [od] | OD450 [4] [od] | OD450 [5] [od] | Kd [6] [nM] | t1/2 [6] [min] | Kd [7] [nM] | t1/2 [7] [min] | Kd [8] [nM] | t1/2 [8] [min] | Kd [9] [nM] | t1/2 [9] [min] | Current blocking (Average % inhibition), IonWorks Quattro, 223 nM antibody [10] [%] | % Binding Nav1.7 [11] [%] | Binder |
| --- | --- | --- | --- | --- | --- | --- | --- | --- | --- | --- | --- | --- | --- | --- | --- | --- |
| 0.299 | 206 | 2 to 4 | 2 to 4 | 2 to 4 | 2 to 4 | 2.37 | 34 | 0.097 | 289 | 14.2 | 3.3 | 43.5 | 3.92 | -50 |  | H4H397B (antibody, V domains shown) VH: QVQLVQSGGGVVQPGRSLRLSCAASGFTFSSYGMHWVRQAPGKGLEWVALISYAGINEYYADSVKGRFTISRDDSKNTLYLQMNSLRVEDTAVYYCAKSRGYSYGLGYWGQGTLVTVSS VL: not shown |
| 0.123 | 84.2 | 2 to 4 | 2 to 4 | 2 to 4 | 2 to 4 | 4.31 | 4 | 1.11 | 17.5 | 4.67 | 3.1 | 14.8 | 1.3 | 38 | 12.5 | H1H1008B (antibody, V domains shown, Fully human antibody; also called H4H1008B) VH: EVQLVQSGPGLVKSSETLSLKCTVSGGSISSSGYYWGWIRQPPGKGLEWIGSIHRSGSTFYNPSLKSRVTISVDTSKSQFSLRLTSVTAADTSVYFCGRHGRDYYYGMDVWGQGTTVTVSS VL: DIQMTQSPSSVSASVGDRVTITCRSSQDINNWLVWYQQKPGKAPKVLIYGASRLQSGVPSRFSGSGSGTDFTLTISSLQPEDFATYYCQQANSFPLTFGGGTKLEIKR |
| 0.751 | 82.5 | 2 to 4 | 2 to 4 | 2 to 4 | 1 to 2 | 5.53 | 12 | 2.39 | 20.3 | 10.2 | 2.3 | 19.2 | 2.8 | -14 | 4.8 | H1M834N (antibody, V domains shown) VH: QVQLVESGGGVVQPGRSQRLSCAASGFTFSHYGMHWVRQAPGKGLEWVAVISYDGNNKHYADSVKGRFTTSRDNSKNTLFLQMNSLRAEDTAVYYCARGYSGYVLDYWGQGTLVTVSS VL: not shown |
| 0.78 | 87.2 | 2 to 4 | 2 to 4 | 2 to 4 | 2 to 4 | 5.85 | 12.5 | 1.89 | 26.5 | 6.7 | 3 | 12 | 3.2 | 25 | 5.9 | H1M875N (antibody, V domains shown, also called H1H875N) VH: QVQLVESGGGVVQPGRSQRLSCAASGFTFSHYGMHWVRQAPGKGLEWVAVISYDGNNKHYADSVKGRFTTSRDNSKNTLFLQMNSLRAEDTAVYYCARGYSGYVLDYWGQGTLVTVSS VL: not shown |
| 0.692 | 137 | 2 to 4 | 2 to 4 | 2 to 4 | 2 to 4 | 3.32 | 18.2 | 1.47 | 28.7 | 7.11 | 3.2 | 15.1 | 3.1 | 13 | 5.1 | H1M839N (antibody, V domains shown) VH: QVQLVESGGGVVQPGRSLRLSCAASGFTFSNYGMHWVRQAPGKGLEWVAVTSYDGSNKHYADSVKGRFSTSRDNPKNTLYLQMDSLRGEDTAVYYCARGYSGFVLDNWGQGTLVTVSS VL: DIVMTQTPLSSPVTLGQPASISCRSSQSLVKSDGNTYLSWLQQRPGQPPRLLIYKISNRFSGVPDRFSGSGAGTDFTLKISRVEAEDVGIYYCMQTTQFPFTFGPGTKVDIK |
| 0.341 | 94 | 2 to 4 | 2 to 4 | 2 to 4 | 2 to 4 | 4.67 | 10.5 | 0.63 | 23.7 | 88 | 0.42 | 107 | 0.59 | -35 | 15.8 | H4H367B (antibody, V domains shown) VH: QVQLVQSGGGVVQPGRSLRLSCAASGFSFSSFGMHWVRQAPGKGLEWVAVISYGGINKHYSDSVKGRFTISRDDSKNTLYLQMNSLRAEDTAVYYCAKREGYRYAYDYWGQGTLVTVSS VL: DIQMTQSPSSLSASVGDRVTITCRASQGISNYLAWFQQKPGKAPKSLIYGASSLQSGVPSKFSGSGSGTDFTLTISSLQPEDFATYYCQQYNSYPLTFGGGTKVEIKR |
